Source: article PMC4755828 (Nature chemical biology, 2016)
pEC50, pIC50, pKd: −log10 of the molar value. Square brackets hold non-standard residues; d marks the D form. Ends that are not written are not given here. Peptide text beside a SMILES is read from it. * marks the point of attachment. Benzoyl(4-tBu) = CC(C)(C)c1ccc(C(=O)*)cc1; Lys(Me3) = C[N+](C)(C)CCCC[C@H](N)C(=O)O; Lys(Et2) = CCN(CC)CCCC[C@H](N)C(=O)O

Legend:
[1] = Intracellular concentration by LC-MS/MS; format: in vitro ADME; details: human, PC3 cells
[2] = tested on: PC3 cells; experiment: Intracellular concentration by LC-MS/MS; format: in vitro ADME
[3] = tested on: HEK293T cells; experiment: CellTiter-Glo cell viability assay; format: cell-based; details: up to 100 μM, 48 hours
[4] = Mouse pharmacokinetics; format: in vivo; details: male swiss albino mice
[5] = tested on: PC3 cells; experiment: CellTiter-Glo cell viability assay; format: cell-based; details: up to 100 μM, 48 hours
[6] = tested on: CBX7; details: cited from earlier work
[7] = target: CBX7 chromodomain (residues 8-62), C-terminal His-tag (UniProt O95931); experiment: ITC
[8] = target: CBX7 (AlphaScreen construct); experiment: AlphaScreen or HTRF
[9] = target: CDY1 chromodomain (residues 1-101) (UniProt Q9Y6F8); experiment: ITC
[10] = target: CBX8 chromodomain (residues 8-61), N-terminal His-tag (UniProt Q9HC52); experiment: ITC
[11] = target: CBX2 chromodomain (residues 9-66) (UniProt Q14781); experiment: ITC
[12] = target: CBX6 chromodomain (residues 8-65) (UniProt O95503); experiment: ITC
[13] = target: CBX4 chromodomain (residues 8-65), N-terminal His-tag (UniProt O00257); experiment: ITC
[14] = target: CDYL2 chromodomain (residues 1-75) (UniProt Q8N8U2); experiment: ITC
[15] = target: CDYL1b chromodomain (residues 1-78) (UniProt Q9Y232); experiment: ITC

Chain of CBX7 chromodomain (residues 8-62), C-terminal His-tag (O95931 8-62): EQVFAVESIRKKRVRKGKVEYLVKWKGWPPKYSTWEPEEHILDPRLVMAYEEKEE
Chain of CDYL2 chromodomain (residues 1-75) (Q8N8U2 1-75): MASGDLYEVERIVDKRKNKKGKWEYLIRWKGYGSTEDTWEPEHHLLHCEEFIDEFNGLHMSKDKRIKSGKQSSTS
Chain of CBX8 chromodomain (residues 8-61), N-terminal His-tag (Q9HC52 8-61): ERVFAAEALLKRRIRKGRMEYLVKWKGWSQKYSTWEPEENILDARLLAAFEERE
Chain of CBX6 chromodomain (residues 8-65) (O95503 8-65): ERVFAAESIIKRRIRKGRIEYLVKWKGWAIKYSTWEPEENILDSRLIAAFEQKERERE
Chain of CDY1 chromodomain (residues 1-101) (Q9Y6F8 1-101): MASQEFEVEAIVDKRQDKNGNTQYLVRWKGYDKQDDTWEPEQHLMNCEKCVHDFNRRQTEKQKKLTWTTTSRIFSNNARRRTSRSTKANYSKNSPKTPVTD
Chain of CBX2 chromodomain (residues 9-66) (Q14781 9-66): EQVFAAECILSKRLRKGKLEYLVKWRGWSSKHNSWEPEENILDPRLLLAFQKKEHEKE

## CCN(CC)CCCC[C@H](NC(=O)[C@H](CC(C)C)NC(=O)[C@H](C)NC(=O)[C@H](Cc1ccccc1)NC(=O)c1ccc(C(C)(C)C)cc1)C(=O)N[C@@H](CO)C(=O)OC [UNC3866] ({Benzoyl(4-tBu)}-FAL[Lys(Et2)]S-OMe)
[1]
  pEC50: 6.47
[2]; PC3 cells treated with 30 μM UNC3866 for 24 hrs, LC-MS/MS
  intracellular concentration: 1.4 ± 0.3 µM
[2]; PC3 cells, 30 μM UNC3866, 24 hours
  intracellular concentration as % of the extracellular concentration: ~5%
[3]
  toxicity in HEK293T cells: no toxic effects
[4]
  clearance (in words): moderate
[5]
  toxicity in PC3 cells: no toxic effects

## RGFAL[Lys(Me3)]STHG
[6]
  affinity for CBX7 relative to the corresponding H3K27me3 peptide: 22 fold
[6]; read-out: CBX7 Kd
  pKd: 5.30

## UNC3567 (peptide)
[7]
  pKd: 5.17

## UNC3866 (peptide)
[8]
  pIC50: 7.18
[9]
  pKd: 5.20
[10]
  pKd: 5.92
[7]
  pKd: 7.01
[11]
  pKd: 5.74
[12]
  pKd: 6.21
[13]
  pKd: 7.03
[14]
  pKd: 6.07
[15]
  pKd: 6.04

## UNC4195 (peptide)
[7]
  pKd: 6.66
